Assays:
Conditions in all cases: both partners purified
[1] = target: T1, C-terminal domain of the Plasmodium falciparum circumsporozoite protein, PfCSP-Cext (Plasmodium falciparum; strain not …, UniProt Q7K740); test: ITC; sdAbCSP1 (45 µM) titrated into the cell with PfCSP-C (4 µM); 20 mM Tris-HCl, 150 mM NaCl, pH 8.0; 25 °C; one set of sites model; triplicate
T1 construct: Plasmodium falciparum circumsporozoite protein, C-terminal domain (alpha-TSR) with unstructured N- and C-terminal extensions; the compactly folded PfCSP-C domain is aa39-100 of PfCSP-Cext; K42, K45, E46, L48, N49 of PfCSP-Cext equal K314, K317, E318, L320, N321 of PfCSP; numbers count on: the construct PfCSP-Cext; also called PfaCSP-Cext; PfCSP-C (as named in the ITC sections); source: …
T1 sequence (Q7K740 310-374): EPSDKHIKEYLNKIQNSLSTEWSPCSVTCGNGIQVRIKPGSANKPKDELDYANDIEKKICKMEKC

[2] = target: T1, C-terminal domain of the Plasmodium …; test: native MS; ITEM-TWO: nanoESI of the mixture (sdAbCSP1 : PfCSP-Cext = 1 : 3.4) in 200 mM ammonium acetate, pH 6.7; complex ions isolated and dissociated in the gas phase by stepwise raised collision cell voltage (2-120 V); apparent gas-phase constants; triplicate
PfCSP-Cext = target: T2, PfCSP-Cext (Plasmodium falciparum, UniProt Q7K740); test: ITC; sdAbCSP1 (45 µM) titrated into the cell with PfCSP-C (4 µM); 25 °C; 20 mM Tris-HCl, 150 mM NaCl, pH 8.0; one set of sites model; triplicate
T2 construct: circumsporozoite protein (PfCSP) of Plasmodium falciparum, C-terminal domain with non-structured N- and C-terminal extensions; the compactly folded PfCSP-C domain is aa39-100; aa114-127 contain the His-tag; numbers count on: the PfCSP-Cext construct; also called C-terminal domain of the Plasmodium falciparum circumsporozoite protein; PfCSP-C (so called in the ITC methods and results); source: E. …
T2 sequence (Q7K740 310-374): as above

Binder | Kd [1] [nM] | dH [1] [kcal/mol] | KD m0g# (apparent quasi equilibrium constant of gas-phase complex dissociation) [2] [s⁻¹] | dH m0g# (apparent enthalpy of gas-phase complex dissociation) [2] [kcal/mol] | kD m0g# (apparent rate constant of gas-phase complex dissociation) [2] | stoichiometry N (PfCSP-Cext)
camelid single domain antibody sdAbCSP1 (VHH, full length is aa1-144; CDR1 aa25-33, CDR2 aa52-57, HV4 aa74-77, CDR3 aa100-118; aa1-125 is the form without non-structured extensions; source: recombinantly expressed) VHH: QVQLQESGGGLVQAGGSLRLSCAASGRTFSSYSMGWFRLVPGKEREFVARISSSGGNTYYADSVRGRFTISRDNAKNTVYLQMNSLKPEDTAVYYCAADLLQFGRSSRAADYDYWGQGTQVTVSS | 0.5 | -8.34 | 3.7e-12 | 12 | 1e+10 Ø (unitless number) | –
sdAbCSP1 (VHH, 144 residues (aa1-144); CDR1 aa25-33, CDR2 aa52-57, HV4 aa74-77, CDR3 aa100-118; aa106-108 are SSR; aa1-125 are the folded domain; also called camelid single domain antibody sdAbCSP1; pQ-sdAbCSP1 (form with N-terminal pyro-glutamine); source: recombinantly expressed) VHH: QVQLQESGGGLVQAGGSLRLSCAASGRTFSSYSMGWFRLVPGKEREFVARISSSGGNTYYADSVRGRFTISRDNAKNTVYLQMNSLKPEDTAVYYCAADLLQFGRSSRAADYDYWGQGTQVTVSS | – | – | – | – | – | 0.9 ± 0.12
